The source of these data is publication PMC2768332.

For this series, the target named is T1, KSRP (UniProt Q92945 1-711).
T1 sequence: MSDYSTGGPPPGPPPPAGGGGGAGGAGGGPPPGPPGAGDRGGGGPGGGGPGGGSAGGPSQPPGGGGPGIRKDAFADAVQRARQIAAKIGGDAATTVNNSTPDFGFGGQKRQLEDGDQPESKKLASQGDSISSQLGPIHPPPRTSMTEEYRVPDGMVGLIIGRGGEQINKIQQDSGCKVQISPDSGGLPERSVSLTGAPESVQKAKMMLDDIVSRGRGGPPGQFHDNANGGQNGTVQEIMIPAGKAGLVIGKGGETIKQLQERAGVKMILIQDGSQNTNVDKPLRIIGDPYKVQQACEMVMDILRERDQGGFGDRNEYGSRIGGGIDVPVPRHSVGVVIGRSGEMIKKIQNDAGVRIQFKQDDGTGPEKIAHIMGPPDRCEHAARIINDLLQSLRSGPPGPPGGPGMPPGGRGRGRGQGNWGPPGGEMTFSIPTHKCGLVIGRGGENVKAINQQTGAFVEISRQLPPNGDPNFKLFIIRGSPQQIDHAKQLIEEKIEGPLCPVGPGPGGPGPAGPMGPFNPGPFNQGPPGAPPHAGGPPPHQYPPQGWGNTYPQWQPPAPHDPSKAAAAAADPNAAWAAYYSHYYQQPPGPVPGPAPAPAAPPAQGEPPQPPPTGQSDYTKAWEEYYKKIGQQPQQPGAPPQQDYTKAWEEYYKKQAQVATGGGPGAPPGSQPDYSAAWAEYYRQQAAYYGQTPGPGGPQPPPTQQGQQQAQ
As to the kind of experiment: UV-crosslinking or EMSA. (A gel shift assay detects complexes by their altered migration in electrophoresis.)

On to CUGUUGAAUCUCAUGG (ssRNA) [TL-miR-21 WT], for which the binding result is reported as “binds”.

CUCUUCAAUCUCAUGG (ssRNA) [TL-miR-21 M2]: the binding result is given as “no binding”.
